The text below walks through data of the supplement of paper PMC9170038.

For this series, the system named is MS2 coat protein. In words: apparent KD of MS2 coat protein; designed switch direction (-1 OFF switch, 1 ON switch): -1; higher = weaker reporter binding. An outline of the steps:
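SNAP-549-labelled MS2 coat protein was titrated, doubling from 0.7 or 1.5 nM to 3 µM, over designed RNA switches transcribed on Illumina chips by stalled E. coli RNA polymerase. Runs were done without input, with 200 uM small-molecule ligand, or with an oligonucleotide input. Apparent KD is the per-design median over clusters of curve-fitted normalised fluorescence.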

Where [1] appears, read: Eterna round: R95, input ligand: microRNA oligo, concentration not stated.
[2] abbreviates: input ligand: microRNA oligo, concentration not stated.
[3] abbreviates: Eterna round: R95, input ligand: FMN 200 uM.
Where [4] appears, read: Eterna round: R95, input ligand: none.

In the case of “CUUCGUAUAGAGGAUAUAGGUUACUACGGUAUCCUAGAAGGCUGUACAUGAGGAUCACCCAUGUACUUCAGAUC [Exclusion 6 - B - 13:d] (puzzle: Exclusion 6)”, the “apparent KD of MS2 coat protein” value under setting [1] came out at 12.2 nM.

In the case of “CUUGUACAUGAGGAUCACCCAUGUUAGGAUAUCUCGCCGUCGGCUUGCCGACGGUAUUAGAGAAGGGACUUGGG [JL Tixe mod 6] (puzzle: Exclusion 1)”, under setting [1], the “apparent KD of MS2 coat protein” value worked out at 50.8 nM.

For “CUUGUGUGAGGAUAUGAAUUGCCUGGUCAUCCAGGCUCCUGUCAGAAGGCACAUGAGGAUCACCCAUGUGGGCA [Biatire] (Eterna round: R97, puzzle: Exclusion 4)”, the “apparent KD of MS2 coat protein” value worked out at 120 nM (input ligand: FMN 200 uM) and 882 nM (input ligand: none).

For “CUUGUUUAUGUAGGAUAUGCCUGGCGUGCCUUUGCAGAAGGACAUGAGGAUCACCCAUGUAACAUGAGGCUCACCCAUGUCGCU [salish99_ExNG1_r04_106] (Eterna round: R96, puzzle: Exclusion NG 1)”, the “apparent KD of MS2 coat protein” value came out at 434 nM (input ligand: FMN 200 uM), 224 nM under setting [2] and 292 nM (input ligand: none).

On to “CUUUAGUGAGGAUAUCAGUAGUAAUACAAUAGUAUUACUAUUGAGAAGGCACAUGAGGAUCACCCAUGUUCCUC [Mat - Exclusion 4 - Mod of Omei - D80] (puzzle: Exclusion 4)”, for which the “apparent KD of MS2 coat protein” value under setting [1] stood at 27.2 nM.

Consider “CUUUAGUGAGGAUAUCGGUAGUAAUACAAUAGUAUUACUACUGAGAAGGCACAUGAGGAUCACCCAUGUUCCUC [Mat - Exclusion 4 - Mod of Omei - D82] (Eterna round: R96, puzzle: Exclusion 4)”, for which the “apparent KD of MS2 coat protein” value stood at 259 nM (input ligand: FMN 200 uM), 25.2 nM under setting [2] and 29.9 nM (input ligand: none).

For “CUUUAGUGAGGAUAUCGGUAGUAAUACAAUAGUAUUACUACUGAGAAGGCACAUGAGGAUCACCCAUGUUCCUC [Mat - Exclusion 4 - Mod of Omei - D82] (puzzle: Exclusion 4)”, the “apparent KD of MS2 coat protein” value under setting [1] came out at 30.2 nM.

“CUUUCGUCUGUGGGUGGUGACAUGAGGAUCACCCAUGUUUUGCUCGUUUUGUCUUGGGCUCGGCGCCCGGGUUCGGG [-25.2, -46.4, A 8%] (Eterna round: R97, puzzle: Sensor, turn-off variant 1)”: the “apparent KD of MS2 coat protein” value by setting is: (input ligand: FMN 200 uM) 467 nM; (input ligand: none) 872 nM.

Regarding “CUUUUGUGAGGAUAUCAGUAGUAAAAAAAUAUAAUUACUACUGAGAAGGCACAUGAGGAUCACCCAUGUUCCUC [salish99_ex4_r3_023] (puzzle: Exclusion 4)”, under setting [1], the “apparent KD of MS2 coat protein” value came out at 40.1 nM.

Consider “CUUUUGUGAGGAUAUCAGUAGUAAAUAAAUAAAAUUAUUACUGAGAAGGCACAUGAGGAUCACCCAUGUUCCUC [salish99_ex3_r3_086] (puzzle: Exclusion 4)”, for which the “apparent KD of MS2 coat protein” value under setting [1] was 36.9 nM.

In the case of “CUUUUGUGAGGAUAUCAUUAGUAAAAAAAUAAAAUUACUACUGAGAAGGCACAUGAGGAUCACCCAUGUUCCUC [salish99_ex4_r3_034] (puzzle: Exclusion 4)”, under setting [1], the “apparent KD of MS2 coat protein” value came out at 37.6 nM.

“CUUUUGUGAGGAUAUUAGUAGUAAAUGAAUAAAAUUAUUACUAAGAAGGCACAUGAGGAUCACCCAUGUUCCUC [Mat - Exclusion 4 - Eli Mod - D1] (Eterna round: R97, puzzle: Exclusion 4)”: the “apparent KD of MS2 coat protein” value reads like this: (input ligand: FMN 200 uM) 393 nM; (input ligand: none) 54.4 nM.

With “CUUUUUGUUGAGGAUAUGCACCAGCUCACUGACGCAGAAGGCGACACAUGAGGAUCACCCAUGUCAGUUCGCGU [salish99_ex6_r004_431] (Eterna round: R97, puzzle: Exclusion 6)”, the “apparent KD of MS2 coat protein” value runs as follows: (input ligand: FMN 200 uM) 21.5 nM; (input ligand: none) 16.8 nM.

Take “GAAAAGGUAGAGGAUAUUUCAGAUCAAAGCUGCAAAGAAGGCUGCACAUGAGGAUCACCCAUGUGGUCAACAAA [Mod of Quesina 13 - Jieux - Exclusion 6] (Eterna round: R97, puzzle: Exclusion 6)”: the “apparent KD of MS2 coat protein” value reads like this: (input ligand: FMN 200 uM) 66.1 nM; (input ligand: none) 21.1 nM.

For the sequence “GAAAAGGUAGGAUAUACGAAAAAAAAGGGUAGAAAAAAAACACAUGAGGAUCACCCAUGUAGAAGGACCAAAAG [Mat - Exclusion 2 - Tesla mod - D30] (Eterna round: R96, puzzle: Exclusion 2)”, the “apparent KD of MS2 coat protein” value under setting [2] came to 25.3 nM.

With “GAAAAGGUAGGAUAUACGAAAAAAAAGGGUAGAAAAAAAACACAUGAGGAUCACCCAUGUAGAAGGACCAAAAG [salish99_ex2_r3_015] (puzzle: Exclusion 2)”, the “apparent KD of MS2 coat protein” value runs as follows: under setting [3], 57.8 nM; under setting [1], 28.7 nM; under setting [4], 27.2 nM.

For “GAAAAGGUAGGAUAUACGAAAAAAAAGGGUAGAAAAAAAACACAUGAGGAUCACCCAUGUAGAAGGACCGAAAG [salish99_ex2_r3_037] (puzzle: Exclusion 2)”, the “apparent KD of MS2 coat protein” value turned out to be 58.5 nM under setting [3], 36.8 nM under setting [1] and 32.7 nM under setting [4].

As to “GAAAAGGUAGGAUAUACGAAAAAAUAGGGUAGAAAAAAAACACAUGAGGAUCACCCAUGUAGAAGGACCAAAAG [salish99_ex2_r3_081] (puzzle: Exclusion 2)”, the “apparent KD of MS2 coat protein” value runs as follows: under setting [3], 47.6 nM; under setting [1], 33.7 nM; under setting [4], 27.5 nM.

“GAAAAGGUAGGAUAUACGAAAAAUAAGGGUAGAAAAAAAACACAUGAGGAUCACCCAUGUAGAAGGACCAAAAG [salish99_ex2_r3_082] (puzzle: Exclusion 2)”: the “apparent KD of MS2 coat protein” value under setting [3] stood at 65.7 nM, the “apparent KD of MS2 coat protein” value under setting [1] turned out to be 27.8 nM and the “apparent KD of MS2 coat protein” value under setting [4] is 33 nM.

Regarding “GAAAAGGUAGGAUAUACGAAAAUAAAGGGUAGAAAAAAAACACAUGAGGAUCACCCAUGUAGAAGGACCAAAAG [salish99_ex2_r3_083] (puzzle: Exclusion 2)”, the “apparent KD of MS2 coat protein” value is, setting by setting: under setting [3], 68.3 nM; under setting [1], 33.4 nM; under setting [4], 36.4 nM.

For the sequence “GAAAAGGUAGGAUAUACGAAUAAAAAGGGUAGAAAAAAAACACAUGAGGAUCACCCAUGUAGAAGGACCAAAAG [salish99_ex2_r3_085] (puzzle: Exclusion 2)”, the “apparent KD of MS2 coat protein” value under setting [3] is 67.7 nM, the “apparent KD of MS2 coat protein” value under setting [1] was 25 nM and the “apparent KD of MS2 coat protein” value under setting [4] was found to be 24.4 nM.

As to “GAAAAGGUAGGAUAUGCGAAAAAAAAGGGUAGAAAAAAAACACAUGAGGAUCACCCAUGUAGAAGGACCAAAAG [salish99_ex2_r3_031] (puzzle: Exclusion 2)”, the “apparent KD of MS2 coat protein” value under setting [3] was 26.1 nM, the “apparent KD of MS2 coat protein” value under setting [1] is 31.2 nM and the “apparent KD of MS2 coat protein” value under setting [4] is 32 nM.

Turning to “GAAAAGUGAGGAUAUGGUAAAAGAAAAAGAAGAAGAAAACUCCAGAAGGCACAUGAGGAUCACCCAUGUGAAAG [salish99_ex4_r3_007] (puzzle: Exclusion 4)”, the “apparent KD of MS2 coat protein” value is 22.2 nM under setting [3], 17.4 nM under setting [1] and 15.7 nM under setting [4].

With “GAAAGGGUAGGAUAUACGAAAAAAAAGGGUAGAAAAAAAACACAUGAGGAUCACCCAUGUAGAAGGACCAAAAG [salish99_ex2_r3_033] (puzzle: Exclusion 2)”, the “apparent KD of MS2 coat protein” value was 40.2 nM under setting [3], 30.9 nM under setting [1] and 27.2 nM under setting [4].

In the case of “GAACGCCGGCAGGAUAUGGACAGCCAAAAGGCGCCAGAAGGGCCAACAUGAGGAUCACCCAUGUGUCCUGAUGG [Riceanon] (puzzle: Exclusion 6)”, the “apparent KD of MS2 coat protein” value by setting is: under setting [3], 10.9 nM; under setting [1], 8.46 nM; under setting [4], 10.3 nM.

In the case of “GAACUCGUGAAGGAUAUCCGUACCAAAGCGGCAGGAGAAGGUCACACAUGAGGAUCACCCAUGUGGUACCUCGU [Xeinbira] (Eterna round: R96, puzzle: Exclusion 6)”, under setting [2], the “apparent KD of MS2 coat protein” value stood at 23.6 nM.

As for “GAACUCGUGAAGGAUAUCCGUACCAAAGCGGCAGGAGAAGGUCACACAUGAGGAUCACCCAUGUGGUACCUCGU [Xeinbira] (puzzle: Exclusion 6)”, the “apparent KD of MS2 coat protein” value under setting [3] worked out at 80.1 nM, the “apparent KD of MS2 coat protein” value under setting [1] is 27.4 nM and the “apparent KD of MS2 coat protein” value under setting [4] is 25.1 nM.

On to “GAACUGAAGCUUUGCUUUAGUCGUACAUGAGGAUCACCCAUGUAGGAUAUGGUAGGCAAAGCUUACUAGAAGGACAGAGUGAUC [Mat - Exclusion NG 3 - Mod of JL - D69] (Eterna round: R96, puzzle: Exclusion NG 3)”, for which the “apparent KD of MS2 coat protein” value (input ligand: FMN 200 uM) was found to be 99.1 nM, the “apparent KD of MS2 coat protein” value under setting [2] is 156 nM and the “apparent KD of MS2 coat protein” value (input ligand: none) turned out to be 71.3 nM.

“GAAGAAAACCAAGGAUAUCGGAAAGGAAGUGUACGAGAAGGUGGACAUGGACAUGAGGAUCACCCAUGUGGCCCGAUGCCGUGG [PowerStrip EXNG 1.5] (Eterna round: R96, puzzle: Exclusion NG 1)”: the “apparent KD of MS2 coat protein” value stood at 54.8 nM (input ligand: FMN 200 uM), 33.5 nM under setting [2] and 38.1 nM (input ligand: none).

On to “GAAGAACAUGAGGAUCACCCAUGUGAGGAUAUGAAAAAGAAAAGAAAAGAAAGAAGAAUCAGAAGGCACAAAGG [Mat - Mod of Hog D2] (puzzle: Exclusion 1)”, for which the “apparent KD of MS2 coat protein” value is, setting by setting: under setting [3], 50.8 nM; under setting [1], 23.1 nM; under setting [4], 38.3 nM.

Turning to “GAAGAUCUGCAGGAUAUGAGACUGAAACAGUUCUCAGAAGGGCGGACAUGAGGAUCACCCAUGUAAGACUGCAA [Eternabot (Original) Solution 4] (Eterna round: R97, puzzle: Exclusion 6)”, the “apparent KD of MS2 coat protein” value stood at 41.6 nM (input ligand: FMN 200 uM) and 78.8 nM (input ligand: none).

For the sequence “GAAGCACAUGAGGAUCACCCAUGUAAGGAUAUAUUUCUGGUCCGGCCGGACCAGUACCGUAGAAGGUAUGUAAA [Excls-IIIa] (puzzle: Exclusion 1)”, the “apparent KD of MS2 coat protein” value under setting [1] stood at 11.8 nM.
